A short description of data set [1]: Stability analysis of Cy7.5-labeled peptides in phosphate-buffered saline (HPLC). It counts as physicochemical. The method, then: After synthesis the chemical purity of the peptides was analyzed by reversed-phase chromatography; we used high-efficiency liquid chromatography: LC-20AD XR (Shimadzu, Japan) equipped with a spectrophotometric detector and a column Luna C18(2) ([…]). The elution was gradient, its mobile phase consisted of deionized water and acetonitrile. The acetonitrile content in a mobile phase was increased from 5% at the beginning of the study to 100% at the end of the study within 40 min. The flow rate was 1 ml/min. Detection was performed at a wavelength of 215 nm, using mass spectrometry with the MALDI-TOF MS FLEX mass spectrometer (Bruker Daltonics, Germany).
We studied the stability of both — the whole structures (Cy7.5-BBN/C1-C2, Cy7.5-GRP, Cy7.5-U5-Sth1a) and also the peptide complexes with Cy7.5. So, all peptides were incubated in the phosphate-buffered saline (pH 7.4) for 144 h, at 37°С. Every 24 h we drew the samples and analyzed them using high-efficiency liquid chromatography LC-20AD XR (Shimadzu, Japan), as described above. The stability of the complex with the dye was fixed similarly to the peptide stability fixation, as following from the accumulation of the free dye in samples.

The test system of data set [2] is patients. The settings on record: patients with AMBA therapy; cited from earlier work. An excerpt:
The key feature of these peptides is their ability to internalize inside the cells, acting as receptor agonists. At early stages of developing pharmaceuticals, this ability was an important condition for high and long-term absorption of a tumor by a pharmaceutical. However, currently, it appears to be a substantial deficiency, since radiolabeled agonists provide high absorption of radionuclides. One more major drawback of the ligands based on GRPR agonists is their absorption by normal non-tumor cells, particularly, the pancreatic cells. So, the potent GRPR agonist — AMBA (DOTA-Gl ...

Data set [3] deals with Nu/Nu mice with PC-3 prostate cancer tumor. The experiment in a line: In vivo surface fluorescent imaging of biodistribution. More on the design: species or system mouse. The settings on record: Cy7.5-labeled peptides, i.v. 19 nmol/kg, Nu/Nu mice with PC-3 tumor, 2 days, n=3. The method, then:
The study was carried out on Nu/Nu line male mice aged 9–10 weeks, weighing 26–28 g.
(§1) Since Cy7.5-GRP peptide stability was limited, firstly, 48 h at 37°С in phosphate-buffered saline, there were two time points used in the study — 2 and 5 days. Two weeks prior to the investigation, the animals were subcutaneously inoculated into the right side with PC-3 cells (1 mil cells in RPMI-1640, 100 μl (PanEco, Russia), and matrigel, 100 μl (ABW, China)) to form a tumor. When the tumor reached its optimal size (150–200 mm3), the animals (n=10) were divided into the following groups: group 1 animals were administered a pure dye (n=1); group 2 — were given Cy7.5-GRP peptide (n=3); group 3 — were administered Cy7.5-U5-Sth1a toxin (n=3); group 4 — had Cy7.5-BBN/C1-C2 administered (n=3). The animals were anesthetized with 3% isoflurane inhalation (Chemical Iberica, Spain) at the rate of 1 L/min within 10 min, then the dose was reduced up to 2%. The peptides were injected into the caudal vein at the rate of 19 nmol/kg. […] The regions of interest were manually determined along the organ borderline; then using the software, we calculated the total fluorescence for each region. Finally, the average fluorescence of the peptides in the organ was calculated, it being normalized to the organ weight.

Data set [4] relates to PC-3 prostate cancer solid tumor expressing GRPR. The experiment in a line: Tumor fluorescent imaging on days 2 and 5. The note with it: Cy7.5-labeled peptides, i.v. 19 nmol/kg, PC-3 tumor in Nu/Nu mice. It counts as in vivo, mouse. Here is the method: as §1
Data set [5] deals with Nu/Nu mice with PC-3 prostate cancer tumor. The experiment in a line: Semiquantitative ex vivo organ biodistribution on day 5 (fluorescence normalized to organ weight). In kind it is in vivo, mouse. The note with it: Cy7.5-labeled peptides, i.v. 19 nmol/kg, day 5, harvested organs, n=3. The method, then:
as §1

The conditions of data set [6]: cited from earlier work. An excerpt: Currently, there have been introduced into clinical practice several radiolabeled ligands targeting GRPR and based on a gastrin-releasing peptide (GRP) analog isolated from amphibian — bombesin (BBN) [[5–8]]. […] In addition to the high concentration of radiopharmaceuticals in non-target organs, there is one more significant problem complicating cancer therapy — pharmaceutical stability.

No end group written: not given here.

As to “Cy7.5-GRP: GRP peptide labeled with Cyanine7.5 fluorescent dye (VPLPAGGGTVLTKMYPRGNHWAVGHLM; ends and bridges not checked; also: Cy7.5 NHS ester bound to peptide amino group (N-terminus or Lys not given here); UniProt P07492 24-50, looked up)”, the “time to which peptide stability was limited” value in data set [1] (37°C in phosphate-buffered saline) turned out to be 48 h. In addition, in data set [1] (phosphate-buffered saline pH 7.4, 37°C, 48 h, reversed-phase HPLC C18, detection 215 nm), the “chemical purity / stability after 48 h” value stood at 64.5%. Moreover, in data set [1] (phosphate-buffered saline pH 7.4, 37°C, 144 h, samples every 24 h, reversed-phase HPLC C18, detection 215 nm), the “chemical purity / stability after 144 h” value was determined as 46.8%. In addition, in data set [1] (phosphate-buffered saline pH 7.4, 37°C, start of incubation, reversed-phase HPLC C18, detection 215 nm), the “chemical purity / stability at the start of incubation” value stood at 95.7%.
Regarding “DOTA-Gly-4-aminobenzoyl-BBN(7–14) [AMBA]”, the “absorption by normal organs in patients” value in data set [2] was “significant absorption of the pharmaceutical by the pancreas and the gastrointestinal tract”.
Regarding “GRP: a short peptide with affinity to GRPR receptors (VPLPAGGGTVLTKMYPRGNHWAVGHLM; ends and bridges not checked; UniProt P07492 24-50, looked up)”, in data set [3], the “main region of binding / accumulation on day 2” value is recorded as “the spleen” and the “organ of excretion on day 2” value was “the kidney”. Moreover, in data set [4], the “localization of labeled peptide in the tumor on day 2” value is recorded as “detected in the tumor to a greater extent than BBN/C1-C2”. The “organs of accumulation / localization, ex vivo” value in data set [5] was “localized in the stomach and the pancreas”.
Take N4-AMA-DIG-[DPhe6,Sar11,LeuNHEt13]BBN: the resistance to proteolysis entry in data set [6] was “high resistance to proteolysis”.
In the case of bombesin, the proteolytic stability entry in data set [6] is reported as “low proteolytic stability”.

The values are drawn from article PMC12892846, “Biodistribution of the Bombesin Receptor-Targeted Radiopharmaceutical Precursor BBN/C1-C2 in a Prostate Cancer Model” (Modern Technologies in Medicine, 2025).
